# Measurements as given in article PMC2789841.
# Tests used:
# Test in all cases: SPR
# [1] = biological target: Recombinant human CypD protein (cyclophilin D) (human) (UniProt P30405)
# oligomeric Aβ42 = biological target: oligomeric Aβ42
# oligomeric Aβ40 = biological target: oligomeric Aβ40
Kd [1] [nM],Kd (oligomeric Aβ42) [nM],Kd (oligomeric Aβ40) [nM],Substance
1700,–,–,Aβ40 (Aβ peptide residues 1-40)
164,–,–,Aβ42 (Aβ peptide residues 1-42)
–,4,227,Recombinant human CypD protein (cyclophilin D) (from UniProt P30405 30-207) (natural protein)
